Literature values as cited in paper PMC3384300.

Test system: MS2 coat protein (bacteriophage MS2?)

natural MS2 coat protein aptamer
Kd: 20 pM
